Patent publication US20230190812A1 (published 2023)

Molecular target: T1, MAGE-A4 (MA4-230) peptide on HLA-A*02:01 (human)
T1 peptide: GVYDGREHTV
Assay: multimer staining

binding result: recognises
B1: MA4-230 H1 TCR (TCR, V domains shown)
Valpha: LAKTTQPISMDSYEGQEVNITCSHNNIATNDYITWYQQFPSQGPRFIIQGYKTKVTNEVASLFIPADRKSSTLSLPRVSLSDTAVYYCLVVEGNRDDKIIFGKGTRLHILP
Vbeta: NAGVTQTPKFRVLKTGQSMTLLCAQDMNHEYMYWYRQDPGMGLRLIHYSVGEGTTAKGEVPDGYNVSRLKKQNFLLGLESAAPSQTSVYFCASPPTPSSYNEQFFGPGTRLTVL
